# Data taken from the supplement of paper PMC9732359.
# ± gives the uncertainty stated by the source.
# Experiment: protein stability index of a GFP-peptide fusion (yeast GPS) (PSI 1-4); higher = more stable; sorted into four equal gates, so the index is relative within each strain
# Conditions: doa10∆
# How it was run: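 The protein stability index of a peptide was calculated by multiplying its read frequency in each gate by that gate's number and adding the products. The peptides were tiled 17-residue stretches of yeast proteins, fused downstream of GFP on a Cherry-expressing plasmid and carried in yeast as a pooled library. Mid-log cultures in leucine-free medium were sorted into four equal gates by GFP/Cherry ratio, and each gate's plasmids were PCR-amplified and Illumina-sequenced.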
row,Sequence,protein stability index
1,EPEEEKSKREEEAKSVL [ARP9],3.15 ± 0.27
2,EPGHAADQEQAKLIRSA [RPO21],3.2 ± 0.2
3,EPTVRIQAVFCLTKFQD [YCG1],2.27 ± 0.05
4,EPYARVSGDLNPIHVSR [FAS1],2.64 ± 0.14
5,EPYHFISNYNTKYTDDM [SRB8],2.96 ± 0.11
6,EQELAHILLTELLAYQF [FAS2],2.547 ± 0.023
7,EQHNLVKKGPVRLPTKV [RPS20],2.45 ± 0.097
8,EQKGQMAKKEGTPKTDS [MED4],3.22 ± 0.21
9,EQKITEIEDGQDGGVTP [RPO21],3.36 ± 0.081
10,EQQPEQPQETEEHHEEE [RPT4],3.41 ± 0.084
11,EQSVKTQNSRHYMVHEA [LIN1],2.62 ± 0.25
12,EQTVSAVTEATSTNGDS [RGR1],3.45 ± 0.16
13,EQWITIESQMRDLILTE [PRP8],2.78 ± 0.088
14,EREIKRRKFDPSSSENV [UBP6],3.51 ± 0.078
15,ERHGYIRGIVKQIVHDS [RPL2A],1.6 ± 0.051
16,ERKKSIGSQRGRRLSML [DSN1],3.18 ± 0.11
17,ERLKVPILVTLVSDSEI [POP6],1.55 ± 0.035
18,ERLMTWKFKSLIEILRL [RRI2],2.11 ± 0.054
19,ERSDLLPYLSDTCAVSF [YJR042W/NUP85],2.31 ± 0.099
20,ERSICALGEFADWDPES [YML031W/NDC1],3.5 ± 0.14
21,ERYSDKYLKKRKIGISI [RPC31],1.61 ± 0.11
22,ERYYELAFDKLNVPVFQ [ARP7],1.87 ± 0.064
23,ESEKLVTPEDVMTISSL [RPC82],3.23 ± 0.083
24,ESENFKIIALQPNEISF [RGR1],2.39 ± 0.091

row,Sequence,protein stability index
1,ESHIDSRNNTLNVTPSK [SIR4],2.77 ± 0.045
2,ESILQMNQGEGEPEAGN [RPC34],3 ± 0.2
3,ESKLKIDPDTKAPNAVV [RPB11],2.24 ± 0.2
4,ESKSLLNLFSNVLKAPF [SIR4],2.39 ± 0.086
5,ESLRGILHVRAQYCYKN [SRP72],1.94 ± 0.1
6,ESLVHSALCILKEQELV [BRR2],2.35 ± 0.2
7,ESQQQDESLKDEATVPN [SWI3],3.19 ± 0.079
8,ESSHEQEEFVQFLQLDN [ECM29],3.5 ± 0.21
9,ESSKALADSLDRCVDPE [DIS3],2.75 ± 0.084
10,ESVELPLTHPELYEEMG [RPT2],2.63 ± 0.077
11,ETFSTSAHQSPIMQTQM [SNF2],3.17 ± 0.077
12,ETIIFDSELNRALFETK [RRI1],3.03 ± 0.14
13,ETISKLNEYKRETLVKT [SMC2],2.02 ± 0.059
14,ETKTKKEKIKGLQDEIM [SMC4],3.12 ± 0.11
15,ETNLQTFLPPLLLKLAS [ECM29],1.65 ± 0.038
16,ETRAELSQLCAVPLQIV [RPO21],1.96 ± 0.087
17,ETVFNYRLMIKRLNFSF [GRR1],1.84 ± 0.099
18,EVAKKRSRKTVKAQRPI [RPL24A],3.12 ± 0.097
19,EVIGYIAAGTYGKVYKA [SSN3],2.01 ± 0.05
20,EVLNRVASRHPSESEHP [YDL116W/NUP84],2.94 ± 0.15
21,EVNISSLDAREANFDLI [RPC40],3.4 ± 0.11
22,EVNREEAIGFIRGSNKF [SMC3],2.84 ± 0.21
23,EVNSKKKNKRALPNIEN [BRR2],2.9 ± 0.14
24,EVQRILIELLTQMDGFD [RPT3],1.36 ± 0.054

row,Sequence,protein stability index
1,EVRAISVAKIRFPETMD [RPO21],3.08 ± 0.1
2,EVSALVRSLPKEEQPKQ [PRP8],1.23 ± 0.075
3,EVTAGEAQDEASLQQQQ [SNF6],3.31 ± 0.17
4,EVVEVQEETVVEQTAEV [RPS12],3.15 ± 0.1
5,EVYNVIASDGSYVNYRH [RPO21],3.41 ± 0.11
6,EYALEAVKRGTCAVGVK [PRE6],1.93 ± 0.08
7,EYINNCKKNTKKCLKLA [POP4],2.82 ± 0.13
8,EYLKGSESQLNSTLKKV [YCS4],2.85 ± 0.17
9,EYQSLMSLKDKLLIQID [SMC1],2.13 ± 0.077
10,EYWAQRKKKFVLDVDPK [ISW2],3.08 ± 0.094
11,FAAIPEQGIELEHIDSK [FAS2],3.17 ± 0.16
12,FANNLKSAISNNFRESD [SIR4],2.55 ± 0.053
13,FATNEERQMNFLTNELI [SWI3],3.28 ± 0.1
14,FCPIVEEIVSNSSRFSD [YCS4],1.97 ± 0.1
15,FDDNDSGNNYNDINISS [MED2],3.08 ± 0.037
16,FDEEFDPFKTSSFNKRS [IRR1],2.76 ± 0.083
17,FDNFLTEEELQAAVPDN [BRN1],2.93 ± 0.071
18,FDYSVILNSIPAAANLD [YJL039C/NUP192],1.48 ± 0.051
19,FEENDHPNRVLEHLHST [COR1],2.96 ± 0.049
20,FEGDSNMLICAPTGSGK [BRR2],1.79 ± 0.096
21,FEIVDREKNSLESGKET [SMC4],3.31 ± 0.26
22,FEKNTILQQRSKINSTE [MED4],2.79 ± 0.073
23,FEQPSQREEAKKVVKKA [RPL27A],2.95 ± 0.15
24,FEVLAPKWERVFLFDIE [RRI2],3.41 ± 0.12

row,Sequence,protein stability index
1,FGAKPDENKASATSKPA [YJL041W/NSP1],2.59 ± 0.066
2,FGAKSDEKKDSDSSKPA [YJL041W/NSP1],3.04 ± 0.074
3,FGKKRLDLAGPLLAQLF [RPB2],1.44 ± 0.19
4,FGKTTANLPANSSTSPA [YLR335W/NUP2],3.01 ± 0.047
5,FGNKPAGSTGFSFGQNN [YGR119C/NUP57],1.75 ± 0.089
6,FGPKKENRKKDESDSEN [YLR335W/NUP2],3.04 ± 0.14
7,FGQKGGQAIVVHPDYLY [FAS2],1.86 ± 0.046
8,FGSGTQNNNTLGGGGLF [YGR119C/NUP57],3.37 ± 0.083
9,FGTGKRLAKKVARRNAD [RPS24A],3.46 ± 0.062
10,FGVSFIYAGYDDRYGYQ [PRE9],2.33 ± 0.09
11,FGYDIPLLDIVLKADRS [YML103C/NUP188],2.14 ± 0.061
12,FHTSFSAVVGPNGSGKS [SMC4],3.09 ± 0.089
13,FIEDLAPEQQVQQFAQL [UBP6],2.79 ± 0.059
14,FIFQIIEITNSNDLCSQ [SRB8],1.39 ± 0.059
15,FILADAGLEITSDNLLT [RPP1B],2.55 ± 0.052
16,FIRHVAKLNYKNLNPAS [ECM29],2.49 ± 0.15
17,FIRYDVKTPKKTKYILQ [CSN12],2.34 ± 0.048
18,FISYHDKYLCMLKTCVF [NUT1],2.67 ± 0.057
19,FITNVQSISQNSSSSTP [SWI1],2.38 ± 0.069
20,FKAEKLQIVNQLPANMV [RPC17],3.36 ± 0.085
21,FKAIHGSQLRLSEWEEY [YCS4],1.27 ± 0.058
22,FKKSKIDHINEESWEKV [SCL1],2.78 ± 0.062

# Same assay, conditions: pdr5∆
row,Sequence,protein stability index
1,ENYSAMIFETIVDGKLK [FAS1],3.24 ± 0.22
2,EPEEEKSKREEEAKSVL [ARP9],3.53 ± 0.29
3,EPGHAADQEQAKLIRSA [RPO21],3.24 ± 0.2
